# Test results: publication PMC5473844, “Structural and Biochemical Characterization of Poly-ADP-ribose Polymerase from Trypanosoma brucei”
# T1: TBP-FL (TbPARP full-length) (Trypanosoma brucei, UniProt Q0PW89 1-573)
# T1 sequence: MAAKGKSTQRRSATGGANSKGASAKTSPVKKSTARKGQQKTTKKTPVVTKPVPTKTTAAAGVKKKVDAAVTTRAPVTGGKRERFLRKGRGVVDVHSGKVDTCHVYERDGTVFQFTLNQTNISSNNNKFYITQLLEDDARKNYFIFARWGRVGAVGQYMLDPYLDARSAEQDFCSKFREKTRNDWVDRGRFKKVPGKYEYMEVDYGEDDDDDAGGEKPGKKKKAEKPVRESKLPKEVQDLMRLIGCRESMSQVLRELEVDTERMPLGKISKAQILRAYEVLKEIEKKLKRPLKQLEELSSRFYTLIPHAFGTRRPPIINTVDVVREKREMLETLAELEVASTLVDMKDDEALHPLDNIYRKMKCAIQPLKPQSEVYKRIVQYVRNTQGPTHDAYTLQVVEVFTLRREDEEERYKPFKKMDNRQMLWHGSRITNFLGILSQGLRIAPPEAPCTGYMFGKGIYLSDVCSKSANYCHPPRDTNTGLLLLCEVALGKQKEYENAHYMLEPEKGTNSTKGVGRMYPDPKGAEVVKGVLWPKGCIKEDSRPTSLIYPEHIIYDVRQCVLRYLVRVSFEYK
# T2: TBP-N (Trypanosoma brucei, UniProt Q0PW89 1-100)
# T2 sequence: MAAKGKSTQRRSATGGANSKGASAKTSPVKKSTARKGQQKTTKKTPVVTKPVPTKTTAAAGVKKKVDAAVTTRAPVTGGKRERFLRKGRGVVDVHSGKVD
# T3: TBP-NW (Trypanosoma brucei, UniProt Q0PW89 1-197)
# T3 sequence: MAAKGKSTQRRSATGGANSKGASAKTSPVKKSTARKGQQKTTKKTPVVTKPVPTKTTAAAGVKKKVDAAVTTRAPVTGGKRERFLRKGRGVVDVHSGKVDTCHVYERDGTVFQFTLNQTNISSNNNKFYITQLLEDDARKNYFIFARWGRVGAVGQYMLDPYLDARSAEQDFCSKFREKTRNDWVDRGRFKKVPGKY
# Columns and labels:
# [1] = biological target: T1, TBP-FL (TbPARP full-length); assay: fluorescence polarization (stoichiometry); 50 mM NaCl; non-specific, no clear inflection; FP: 10 mM HEPES pH 8, 0.1 mM TCEP, 0.1 mM EDTA, 175 mM NaCl, 25 C, 5 nM DNA (250 nM for stoichiometry); EMSA: 50 mM Tris pH 7, 0.1 mM TCEP, 0.1 mM EDTA, 5% glycerol, 100 mM NaCl, room temperature, 0.5 uM DNA; details: protein: recombinant; tags: 6xHis-thioredoxin tag removed with TEV; label: 5' FAM on strand 1; blunt
# [2] = biological target: T1, TBP-FL (TbPARP full-length); assay: fluorescence polarization; low nanomolar affinity (value only in figure); 1:1; FP: 10 mM HEPES pH 8, 0.1 mM TCEP, 0.1 mM EDTA, 175 mM NaCl, 25 C, 5 nM DNA (250 nM for stoichiometry); EMSA: 50 mM Tris pH 7, 0.1 mM TCEP, 0.1 mM EDTA, 5% glycerol, 100 mM NaCl, room temperature, 0.5 uM DNA; details: protein: recombinant; tags: 6xHis-thioredoxin tag removed with TEV; label: 5' FAM; single strand
# [3] = biological target: T1, TBP-FL (TbPARP full-length); assay: SEC-SAXS; 1:1 complex, non-activating DNA; FP: 10 mM HEPES pH 8, 0.1 mM TCEP, 0.1 mM EDTA, 175 mM NaCl, 25 C, 5 nM DNA (250 nM for stoichiometry); EMSA: 50 mM Tris pH 7, 0.1 mM TCEP, 0.1 mM EDTA, 5% glycerol, 100 mM NaCl, room temperature, 0.5 uM DNA; details: protein: recombinant; tags: 6xHis-thioredoxin tag removed with TEV; hairpin, 28 bp stem, TTTT loop, 3' overhang 4 nt
# [4] = biological target: T1, TBP-FL (TbPARP full-length); assay: SEC-SAXS; 2:1 protein:DNA complex, activating DNA; FP: 10 mM HEPES pH 8, 0.1 mM TCEP, 0.1 mM EDTA, 175 mM NaCl, 25 C, 5 nM DNA (250 nM for stoichiometry); EMSA: 50 mM Tris pH 7, 0.1 mM TCEP, 0.1 mM EDTA, 5% glycerol, 100 mM NaCl, room temperature, 0.5 uM DNA; details: protein: recombinant; tags: 6xHis-thioredoxin tag removed with TEV; hairpin, 28 bp stem, TTTT loop, 3' overhang 4 nt
# [5] = biological target: T1, TBP-FL (TbPARP full-length); assay: EMSA; higher protein needed for full supershift; FP: 10 mM HEPES pH 8, 0.1 mM TCEP, 0.1 mM EDTA, 175 mM NaCl, 25 C, 5 nM DNA (250 nM for stoichiometry); EMSA: 50 mM Tris pH 7, 0.1 mM TCEP, 0.1 mM EDTA, 5% glycerol, 100 mM NaCl, room temperature, 0.5 uM DNA; details: protein: recombinant; tags: 6xHis-thioredoxin tag removed with TEV; 3' overhang 4 nt (TCGA) on strand 1, other end blunt
# TBP-N = biological target: T2, TBP-N; assay: EMSA; FP: 10 mM HEPES pH 8, 0.1 mM TCEP, 0.1 mM EDTA, 175 mM NaCl, 25 C, 5 nM DNA (250 nM for stoichiometry); EMSA: 50 mM Tris pH 7, 0.1 mM TCEP, 0.1 mM EDTA, 5% glycerol, 100 mM NaCl, room temperature, 0.5 uM DNA; details: protein: recombinant; tags: 6xHis tag removed with TEV; blunt
# TBP-NW = biological target: T3, TBP-NW; assay: as above; details: protein: recombinant; tags: 6xHis-thioredoxin tag removed with TEV; blunt
# [6] = biological target: T1, TBP-FL (TbPARP full-length); assay: as above; details: protein: recombinant; tags: 6xHis-thioredoxin tag removed with TEV; blunt
binder,measurement,setting,value
template 20 (dsDNA) DNA 1: CAGCAGGTACCTGCCCGGCGCCCAGAGAGGAATGCAACACTC DNA 2: GAGTGTTGCATTCCTCTCTGGGCGCCGGGCAGGTACCTGCTG,binding result,[1],binds
CAGCAGGTACCTGCCCGGCGCCCAGAGAGGAATGCAACACTC (ssDNA) [template 21],binding result,[2],binds
template 14 (structured_DNA) DNA: GCTCTAGTGTAGCATGAGCCTTAGCGCGTTTTCGCGCTAAGGCTCATGCTACACTAGAGCTCGA,binding result,[3],binds
"template 15 (structured_DNA, 5' phosphate) DNA: GCTCTAGTGTAGCATGAGCCTTAGCGCGTTTTCGCGCTAAGGCTCATGCTACACTAGAGCTCGA",binding result,[4],binds
"template 6 (dsDNA, 5' phosphate on strand 2) DNA 1: CGCGCTAAGGCTCATGCTACACTAGAGCTCGA DNA 2: GCTCTAGTGTAGCATGAGCCTTAGCGCG",binding result,[5],binds
template 1 (dsDNA) DNA 1: CCAGGACCAGGGCGCAGATCACCTTGTTCTCCA DNA 2: TGGAGAACAAGGTGATCTGCGCCCTGGTCCTGG,binding result,TBP-N,binds
same,binding result,TBP-NW,binds
same,binding result,[6],binds
